Measured values as given in PMC3594298.

Target: 6Xhis-tagged AldE (class 3 aldehyde dehydrogenase encoded by synpcc7942_0489) from S. elongatus PCC7942 (S. elongatus PCC7942)
Experiment: SEC; HiLoad 16/60 SuperDex200 gel filtration column in 150 mM NaCl/50 mM Tris, 7.5/1 mM EDTA; elution compared with MW standards

“6Xhis-tagged AldE (class 3 aldehyde dehydrogenase encoded by synpcc7942_0489) from S. elongatus PCC7942 (enzyme)” showed a stoichiometry N of 2.
